From patent US7241737B2, “Urotensin-II agonists and antagonists” (priority 2000, dated 2007)
“Also recorded” adds a separate entry of the source. Bridge positions count the residues as written; N and C are the ends. Ends that are not written are not given here.

Key:
U-II receptors = target: T1, U-II receptors (Rattus norvegicus, UniProt P49684); experiment: Binding to U-II receptors (rat aorta tissue)
T1 construct: from tissue; host or cells: rat thoracic aorta (circular strips / rings)
T1 sequence (P49684 1-386): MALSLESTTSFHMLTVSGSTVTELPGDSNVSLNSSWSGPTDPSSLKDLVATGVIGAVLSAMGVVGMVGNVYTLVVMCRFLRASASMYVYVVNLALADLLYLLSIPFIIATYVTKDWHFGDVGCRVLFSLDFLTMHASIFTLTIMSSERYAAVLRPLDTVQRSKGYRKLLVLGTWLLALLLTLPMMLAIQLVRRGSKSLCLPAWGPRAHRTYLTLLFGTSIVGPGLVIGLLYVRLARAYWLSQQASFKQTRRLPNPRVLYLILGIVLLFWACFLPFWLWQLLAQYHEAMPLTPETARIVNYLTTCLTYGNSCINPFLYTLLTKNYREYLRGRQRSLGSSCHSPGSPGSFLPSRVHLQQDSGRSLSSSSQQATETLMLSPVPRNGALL

rat aorta contraction = experiment: Peptide-induced contraction of rat aorta rings (agonist activity)
Procedure: Male Sprague-Dawley rats (250-350 g), which had been quarantined for 5-7 days prior to the experiments, were sacrificed by decapitation (experiments were approved by the Advisory Committee For Animal Resources, Tulane University School of Medicine). The thoracic aorta was dissected, freed from connective tissue, and cut into rings of about 1.5 mm in width. The rings were suspended in a 15 ml organ bath containing high potassium Kreb's solution (9.15 g/L potassium chloride, 2.1 g/L sodium bicarbonate, 1.0 g/L glucose, 0.16 g/L potassium phosphate monobasic, 0.14 g/L magnesium sulfate (anhydr.), and 0.22 g/L calcium chloride (dihydr.))
Optimal tension was applied (0.2 g) to the tissues and the bath medium was maintained at 37° C. and bubbled with a mixture of 95% O2/5% CO2. […] Changes in arterial smooth muscle tension were recorded isometrically using a force-displacement transducer (Radnoti), and a AcqKnowledge ACK100 Version 3.2 (BIOPAC Systems, Inc., Santa Barbara, Calif.)
In siliconized glass tubes, peptides were dissolved in dionized water at a concentration of 1 μg/1 μL (stock solution) and then diluted 1:10 with sterile BSA-saline solution (0.1% BSA, fraction V, Sigma, St. Louis in 0.9% NaCl). […] Peptide-induced changes in tension of the aorta rings were recorded by force-displacement transducers and processed by the computer system BIOPAC Inc., as described above. […]

Asp-c[Cys-Phe-Trp-Lys-Tyr-Cys]-Val-OH (DCFWKYCV-OH; disulfide 2-7 (inferred))
potency in binding to rat aorta tissue relative to full human and fish U-II (U-II receptors): greater potency than the full human and fish U-II sequences | potency in inducing rat aorta contraction relative to full human and fish U-II (rat aorta contraction): greater potency than the full human and fish U-II sequences; also recorded: more potent than the full human and fish sequences
